Where a chain is given by its changes, count along the chain named.
T1: soluble heterodimeric hCD3ε/δ.mFc protein (human)
T1 construct: also called soluble human CD3; soluble heterodimeric CD3 protein
T1 chain 1: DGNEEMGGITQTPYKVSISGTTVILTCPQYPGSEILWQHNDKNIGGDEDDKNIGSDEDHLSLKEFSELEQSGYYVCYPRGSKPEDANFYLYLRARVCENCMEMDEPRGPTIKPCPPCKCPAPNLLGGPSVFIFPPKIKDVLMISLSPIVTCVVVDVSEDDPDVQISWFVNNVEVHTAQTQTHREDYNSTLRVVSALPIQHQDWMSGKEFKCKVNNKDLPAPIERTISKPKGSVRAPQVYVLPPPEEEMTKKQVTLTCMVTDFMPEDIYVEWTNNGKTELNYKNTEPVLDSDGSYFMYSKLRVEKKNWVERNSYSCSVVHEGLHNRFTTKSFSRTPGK
T1 chain 2: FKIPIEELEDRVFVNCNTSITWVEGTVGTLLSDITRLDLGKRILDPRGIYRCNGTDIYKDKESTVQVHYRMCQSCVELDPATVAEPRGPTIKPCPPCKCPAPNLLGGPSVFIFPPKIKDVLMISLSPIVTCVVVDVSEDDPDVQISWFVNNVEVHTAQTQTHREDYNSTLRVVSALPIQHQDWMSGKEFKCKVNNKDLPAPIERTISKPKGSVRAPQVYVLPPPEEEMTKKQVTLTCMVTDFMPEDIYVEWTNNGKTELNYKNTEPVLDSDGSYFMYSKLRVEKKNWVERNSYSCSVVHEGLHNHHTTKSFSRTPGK

B1: H1H5764P (antibody, human IgG1, V domains shown)
VH: QVQLVESGGGVVQPGRSLRLSCAASGFTFRSFGMHWVRQAPGKGLEWVAVISYDGNYKYYADSVKGRFTISRDNSKNTLYLQMNSLRAEDTAVHYCAKGAMVRGVPYNFYYGMDVWGQGTTVTVSS
VL: DIQMTQSPSSLSASVGDRVTITCRASQVIRNDLGWYQQKPGKAPKRLIYAASSLQSGIPSRFSGSGSGTEFTLTISSLQPEDFATYYCLQHNSYPYTFGQGTKLEIK
notes: H1H: human IgG1 Fc
B2: H1H5772S (antibody, human IgG1, V domains shown)
VH: QVQLVESGGGLVQPGRSLRLSCAASGFSFDDYAMHWVRQAPGQGLEWVSGISWNGGSRDYADSVKGRFTISRDNARNSLFLQMNSLFTEDTALYYCAKDKSGYGSYFYGMDVWGQGTTVTVSS
VL: EIVLTQSPGILSLSPGDRATLSCRASQSIRNIYLAWYQQKPGQAPRLLIHGASTRATGIPDRFSGSGSGTDFTLTISRLEPEDFAVYYCQQRVSSPYTFGQGTKLEIK
notes: H1H: human IgG1 Fc; also called H1H5772P
B3: H1H5780P (antibody, human IgG1, V domains shown)
VH: EVQLVESGGGLVQPGRSLRLSCAASGFTFDDYAMHWVRQAPGKGLEWVSGISWNGGSKDYADSVKGRFTISRDNTRNSLSLQMNSLRIEDTALYYCAKDKSGYGSFYYGLDVWGQGTTVTVSS
VL: B2 VL with I10T, N31S
notes: H1H: human IgG1 Fc
B4: H1H5771P (antibody, human IgG1, V domains shown)
VH: B2 VH with Q1E, D31N, G55S, F87S, T88N, L93M
VL: B2 VL with I10T, S95L
B5: H1H5778P (antibody, human IgG1, V domains shown)
VH: EVQLVESGGGLVQPGRSLRLSCVASGFTFADFTMHWVRQAPGKGLEWVSGISWNSNSIDYADSVKGRFTISRDNAKKSLFLQMSSLRAEDTALYYCVKDRSGYSRFYYGMDVWGQGTTVTVSS
VL: EIVMTQSPATLSVSPGERAILSCRASQNINSNLAWYQQKPGQAPRLLIYGASTRATGVPARFSGSGSGTEFTLTIRSLQSEDFAVYYCQQYYNWPITFGHGTRLEIK
notes: H1H: human IgG1 Fc
B6: H1H5781P (antibody, human IgG1, V domains shown)
VH: EVQLVESGGGLVQPGRSLRLSCAASGFTFDDFTMHWVRQAPGKGLEWVSDISWNSGSIDYADSVKGRFTISRDNARNSLFLQMSSLRTEDTASYYCIKDKSGYGSYNYGLDVWGQGTTVTVSS
VL: B2 VL with I10T, I29V, R30S, N31S, V86L, Q90H
notes: H1H: human IgG1 Fc
B7: H1H5788P (antibody, V domains shown)
VH: EVQLVESGGGLVQPGRSLRLSCAASGFTFDDYTMHWVRQAPGKGLEWVSGISWNSGSIGYADSVKGRFTISRDNAKNSLYLQMNSLRAEDTALFYCAKDQSGYGHYYYGMDVWGQGTTVTVSS
VL: EIVMTQSPATLSVSPGERATLSCRASQSVSSNLAWYQQKPGQAPRLLIYGASTRATDIPARFSGSGSGTEFTLTISSLQSEDFAVYHCQQYNNWPLTFGGGTKVEIK
notes: H1H: human IgG1 Fc
B8: BSPSMA/CD3-1200 (bispecific antibody, IgG4, V domains shown)
VH 1: QVQLVESGGGVVQPGRSLRLSCAASGFTFSSYGMHWVRQAPGKGLEWVAVISYAGNNKYYADSVKGRFTVSRDNSKKTLYLQMNSLRSEDTAVYYCAKDSYYDFLTDPDVLDIWGQGTMVTVSS
VH 2: EVQLVESGGGLVQPGRSLRLSCAASGFTFDDYSMHWVRQAPGKGLEWVSGISWNSGSIGYADSVKGRFTISRDNAKNSLYLQMNSLRAEDTALYYCAKDGSGYGKFYHYGLDVWGQGTTVTVSS
VL: DIQMTQSPSSLSASVGDSVTITCRASQSINNYLNWYQQKPGKAPKLLIYTASSLLSGVPSRFSGSGSGTDFTLTISGLHPEDFATYFCQQSFSTPPITFGQGTRLDIK
notes: modified (chimeric) IgG4 Fc domain; also called PSMA-VH-11810 x CD3-VH-G12
B9: BSPSMA/CD3-1500 (bispecific antibody, IgG4, V domains shown)
VH 1: B8 VH 1
VH 2: B8 VH 2 with I58K, H108Y
VL: B8 VL
notes: modified (chimeric) IgG4 Fc domain; also called PSMA-VH-11810 x CD3-VH-G15
B10: BSPSMA/CD3-1600 (bispecific antibody, IgG4, V domains shown)
VH 1: B8 VH 1
VH 2: B8 VH 2 with I58K, L111M
VL: B8 VL
notes: modified (chimeric) IgG4 Fc domain; also called PSMA-VH-11810 x CD3-VH-G16
B11: BSPSMA/CD3-1900 (bispecific antibody, IgG4, V domains shown)
VH 1: B8 VH 1
VH 2: B8 VH 2 with L111M
VL: B8 VL
notes: modified (chimeric) IgG4 Fc domain; also called PSMA-VH-11810 x CD3-VH-G19
B12: BSPSMA/CD3-2100 (bispecific antibody, IgG4, V domains shown)
VH 1: B8 VH 1
VH 2: B8 VH 2 with I58K, H108Y, L111M
VL: B8 VL
notes: modified (chimeric) IgG4 Fc domain; also called PSMA-VH-11810 x CD3-VH-G21
B13: H1H5761P (antibody, human IgG1, V domains shown)
VH: B1 VH with R30S, F32Y, N56S, Y57N, N74Y, H94F, F109Y
VL: B1 VL with V28G, Y36F, I58V
B14: H1H5769P (antibody, human IgG1, V domains shown)
VH: B3 VH with A33T, A40V, V48I, G55S, K58M, T75A, S80F, L86V, I88T, L110M
VL: B2 VL with I10T, I29V, R30S, N31S, V93A, S94H

biological target: T2, human CD3 expressed on cells (Jurkat cells; human T-cells of PBMC) (human, UniProt P09693 23-182; P20963 22-164); assay: cell-based or functional assay
T2 sequence (chain, as listed by the source, chain 1 of 4): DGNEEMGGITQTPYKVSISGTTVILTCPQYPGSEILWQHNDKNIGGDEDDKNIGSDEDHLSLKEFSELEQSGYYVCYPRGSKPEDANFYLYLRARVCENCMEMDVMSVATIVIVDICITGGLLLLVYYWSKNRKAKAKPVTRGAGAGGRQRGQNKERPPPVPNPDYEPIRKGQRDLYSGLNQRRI
T2 sequence (chain, as listed by the source, chain 2 of 4): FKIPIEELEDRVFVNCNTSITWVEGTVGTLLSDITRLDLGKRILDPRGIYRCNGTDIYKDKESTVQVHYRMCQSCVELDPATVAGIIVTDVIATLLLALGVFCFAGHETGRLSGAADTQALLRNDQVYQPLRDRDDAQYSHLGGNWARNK
T2 sequence (P09693 23-182, chain 3 of 4): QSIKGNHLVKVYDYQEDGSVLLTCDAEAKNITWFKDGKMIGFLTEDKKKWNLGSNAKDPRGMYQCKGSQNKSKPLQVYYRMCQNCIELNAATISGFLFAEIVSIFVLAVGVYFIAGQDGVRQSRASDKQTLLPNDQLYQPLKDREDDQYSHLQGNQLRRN
T2 sequence (P20963 22-164, chain 4 of 4): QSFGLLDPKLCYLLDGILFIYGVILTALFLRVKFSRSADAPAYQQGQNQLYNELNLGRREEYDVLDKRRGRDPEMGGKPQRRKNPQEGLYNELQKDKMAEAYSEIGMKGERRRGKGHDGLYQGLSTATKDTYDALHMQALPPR

| Binder | EC50 [M] hPBMC Proliferation |
| --- | --- |
| B1 | 3.27e-13 M |
| B2 | 4.42e-12 M |
| B3 | 3.44e-12 M |
| B4 | 6.35e-12 M |
| B5 | 5.04e-12 M |
| B6 | 6.08e-12 M |
| B7 | 4.62e-12 M |

biological target: T3, human CD3 on CD3-expressing cells (Jurkat, human T cells) (human, UniProt P07766 23-207; P04234 22-171); assay: FACS on Jurkat cells
T3 construct: On cells CD3 stands within the T cell receptor complex (also gamma and zeta chains); also called human CD3 expressing Jurkat cells
T3 sequence (P07766 23-207 limits assumed, chain 1 of 2): as the sequence (chain, as listed by the source, chain 1 of 4) above
T3 sequence (P04234 22-171 limits assumed, chain 2 of 2): as the sequence (chain, as listed by the source, chain 2 of 4) above
Experimental: (§1) Briefly, 2×10⁵ cells/well of human CD3-expressing Jurkat, cynomolgus T, or human PSMA-specific expressing cells were incubated with a serial dilution of bispecific antibodies for 30 min at 4° C. After incubation, cells were washed and a goat F(ab′)₂ anti-human Fcγ PE labeled secondary (Jackson Immunolabs) was added to the cells for an additional 30 min. Next, cells were washed, re-suspended in cold PBS+1% BSA and analyzed via flow cytometry on a BD FACS Canto II.
(§2) For FACS analysis, cells were gated by forward scatter height vs. forward scatter area for single events selection, followed by side and forward scatters. The EC₅₀ for cell binding titration was determined using Prism software. Values were calculated using 4-parameter non-linear regression analysis.

| Binder | EC50 |
| --- | --- |
| B8 | 47.2 nM |
| B9 | 93 nM |
| B10 | 56.8 nM |
| B11 | 60.7 nM |
| B12 | 106 nM |

biological target: cynomolgus monkey CD3 expressed on monkey T-cells (PBMCs) (cynomolgus monkey, UniProt Q95LI5 22-198; Q95LI8 22-171); assay: cell-based or functional assay
Sequence (Q95LI5 22-198, chain 1 of 2): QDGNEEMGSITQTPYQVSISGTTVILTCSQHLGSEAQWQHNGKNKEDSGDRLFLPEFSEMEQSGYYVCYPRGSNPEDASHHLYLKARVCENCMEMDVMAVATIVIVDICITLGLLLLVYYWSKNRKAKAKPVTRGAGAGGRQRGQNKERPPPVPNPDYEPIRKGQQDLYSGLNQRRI
Sequence (Q95LI8 22-171, chain 2 of 2): as the sequence (chain, as listed by the source, chain 2 of 4) above, with I5V, N15K, I20V, S32T, D33N, I34N, T64A, S74N, V83L, H141R counted along it

| Binder | EC50 [M] mfPBMC Proliferation |
| --- | --- |
| B13 | 2.81e-09 M |
| B1 | 4.06e-10 M |
| B14 | 8.33e-13 M |
| B2 | 1.47e-12 M |
| B3 | 3.13e-13 M |
| B4 | 2.74e-12 M |
| B5 | 5.93e-13 M |
| B6 | 7.92e-13 M |
| B7 | 2.01e-12 M |

biological target: T2, human CD3 expressed on cells (Jurkat …); assay: FACS titration on Jurkat cells (CD3+ human T-cell line)
Experimental: FACS data was acquired using the following protocol: Cells at 2×10⁵ per well were incubated with serially diluted antibodies for 30 min on ice. Post incubation, cells were washed and secondary antibody was added and incubated for an additional 30 minutes. After incubation, cells were washed, re-suspended in cold PBS containing 1% BSA and analyzed by flow cytometry with viable Jurkat cells gated by side and forward scatters. The EC₅₀s for cell binding titration were determined using Prism software with values calculated using a 4-parameter non-linear regression analysis.

| Binder | EC50 |
| --- | --- |
| B1 | 0.88 nM |
| B2 | 0.664 nM |
| B3 | 0.762 nM |
| B5 | 0.685 nM |
| B6 | 1.23 nM |
| B7 | 3.53 nM |

biological target: T2, human CD3 expressed on cells (Jurkat …); assay: cell-based or functional assay; remark: another data set of the same source

| Binder | U937 Cytotoxicity Human T-cells |
| --- | --- |
| B2 | 0.689 pM |
| B3 | 4.03 pM |
| B5 | 0.341 pM |
| B6 | 1.83 pM |
| B7 | 15.4 pM |

Biological target: T1, soluble heterodimeric hCD3ε/δ.mFc …
Assay: SPR MASS-1, 37 C, antigen-capture (hCD3ε/δ.mFc captured), antibody injected
Experimental: Measurements were conducted on a Sierra Sensors MASS-1 instrument.
In the antigen-capture format, the MASS-1 high-density amine sensor surface was derivatized with a goat anti-mouse IgG2a polyclonal antibody (Southern Biotech). Soluble heterodimeric CD3 protein was captured and the respective antibodies were injected over the captured antigen.
Kinetic association (kₐ) and dissociation (kd) rate constants were determined by processing and fitting the data to a 1:1 binding model using MASS-1 AnalyserR2 curve fitting software. Binding dissociation equilibrium constants (KD) and dissociative half-lives (t_{1/2}) were calculated from the kinetic rate constants as: KD (M)=kd/kₐ; and t_{1/2} (min)=(ln 2/(60*kd).

| Binder | Kd | T½ | koff | kon |
| --- | --- | --- | --- | --- |
| B8 | 64.2 nM | 4.7 min | 0.00247 s⁻¹ | 38500 M⁻¹ s⁻¹ |
| B9 | 82.9 nM | 1.9 min | 0.00611 s⁻¹ | 73600 M⁻¹ s⁻¹ |
| B10 | 37.8 nM | 4.7 min | 0.00243 s⁻¹ | 64300 M⁻¹ s⁻¹ |
| B11 | 115 nM | 2.3 min | 0.00509 s⁻¹ | 44300 M⁻¹ s⁻¹ |
| B12 | 77.5 nM | 4.9 min | 0.00234 s⁻¹ | 30200 M⁻¹ s⁻¹ |

biological target: T4, human PSMA on PSMA-expressing cells (human, UniProt Q04609 1-750); assay: FACS on B16F10.9/PSMA cells
T4 construct: Cell line is named under assay or readout in each row; also called B16F10.9/hPSMA; B16F10.9/PSMA
T4 sequence (Q04609 whole entry): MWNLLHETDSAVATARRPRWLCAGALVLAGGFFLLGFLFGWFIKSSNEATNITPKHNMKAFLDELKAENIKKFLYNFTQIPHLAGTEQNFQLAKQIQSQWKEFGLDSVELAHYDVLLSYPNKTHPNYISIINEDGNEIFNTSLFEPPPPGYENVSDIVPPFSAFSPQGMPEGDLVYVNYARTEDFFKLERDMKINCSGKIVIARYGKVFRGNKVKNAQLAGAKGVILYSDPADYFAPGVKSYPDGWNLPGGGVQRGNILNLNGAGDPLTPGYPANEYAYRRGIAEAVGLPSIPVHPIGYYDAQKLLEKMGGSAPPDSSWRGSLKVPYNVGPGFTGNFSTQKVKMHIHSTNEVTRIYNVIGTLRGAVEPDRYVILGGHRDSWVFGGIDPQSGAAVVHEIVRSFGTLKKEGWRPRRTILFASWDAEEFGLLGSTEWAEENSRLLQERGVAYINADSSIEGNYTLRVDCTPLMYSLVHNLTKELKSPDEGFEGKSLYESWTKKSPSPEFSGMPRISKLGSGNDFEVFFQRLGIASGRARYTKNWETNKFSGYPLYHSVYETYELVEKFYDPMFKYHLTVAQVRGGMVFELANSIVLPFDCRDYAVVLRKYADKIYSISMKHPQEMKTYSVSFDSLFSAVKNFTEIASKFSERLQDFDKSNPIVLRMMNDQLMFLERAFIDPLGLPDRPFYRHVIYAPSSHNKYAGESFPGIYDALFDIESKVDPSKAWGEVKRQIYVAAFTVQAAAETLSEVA
Experimental: as §1, §2

| Binder | EC50 |
| --- | --- |
| B8 | 1.16 nM |
| B9 | 1.21 nM |
| B10 | 1.03 nM |
| B11 | 1.35 nM |
| B12 | 1.14 nM |

From US20190127480A1 (Regeneron, published 2019)
